Laboratory results reported in paper PMC6358098.

Target: recombinant protruding (P) domain of Macrobrachium rosenbergii nodavirus capsid protein (MrNV-CP) (Macrobrachium rosenbergii nodavirus)
Assay: SEC; HiPrep 16/60 Sephacryl S-200 HR, Tris-HCl buffer (20 mM Tris-HCl, 100 mM NaCl, pH 7.6); elution profile overlaid with those of standard protein markers

recombinant protruding (P) domain of Macrobrachium rosenbergii nodavirus capsid protein (MrNV-CP) (domain or fragment)
stoichiometry N: 2
